Earlier results, collected in publication PMC6586500.

Target: Histone H3K9me3 peptide (Homo sapiens) (UniProt P68431)

CBX5, sequence (P45973 whole entry): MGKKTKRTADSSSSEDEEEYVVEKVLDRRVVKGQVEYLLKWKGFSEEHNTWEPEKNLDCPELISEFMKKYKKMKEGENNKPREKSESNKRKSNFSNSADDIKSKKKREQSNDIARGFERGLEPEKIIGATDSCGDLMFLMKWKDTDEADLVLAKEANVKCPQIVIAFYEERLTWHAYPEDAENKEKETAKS

CBX5 (from UniProt P45973)
Kd: 30 µM
